Source: publication PMC3702670 (Nature structural & molecular biology, 2013)
Where a chain is given by its changes, count along the chain named. Where two headings read alike, the source gives them in different places.

Columns and labels:
[…] = biological target: the molecule itself; assay: […]
SPR = biological target: the molecule itself; assay: SPR
GR DBD WT [1] = biological target: T1, GR DBD WT (rat, UniProt P06536 440-525); assay: NMR
GR DBD WT [2] = biological target: T1, GR DBD WT; assay: NMR; remark: listed apart in the source
GR DBD A477T [3] = biological target: T2, GR DBD A477T (rat, UniProt P06536 440-525, A477T); assay: NMR
GR DBD WT [4] = biological target: T1, GR DBD WT; assay: NMR; remark: listed apart in the source
GR DBD A477T [5] = biological target: T2, GR DBD A477T; assay: NMR; remark: listed apart in the source
GR DBD WT [6] = biological target: T1, GR DBD WT; assay: SPR

B1: rat glucocorticoid receptor DNA binding domain, wild type (domain or fragment)
chain: CLVCSDEASGCHYGVLTCGSCKVFFKRAVEGQHNYLCAGRNDCIIDKIRRKNCPACRYRKCLQAGMNLEARKTKKKIKGIQQATAG
B1: binds ([…]).

B2: rat glucocorticoid receptor DNA binding domain, [change] mutant (domain or fragment)
chain: B1 chain with A38T
B2: binds (SPR).

B3: Sgk-ggg GBS (dsDNA)
DNA 1: GTACAGAACAGGGTGTCCGTCGAC
DNA 2: GTCGACGGACACCCTGTTCTGTAC
B3: binds (GR DBD WT [1]).

B4: Gilz GBS (dsDNA)
DNA 1: GTACAGAACATTGGGTTCCTCGAC
DNA 2: GTCGAGGAACCCAATGTTCTGTAC
B4: binds (GR DBD WT [2]).

B5: Gha GBS (dsDNA)
DNA 1: GTACGGAACATAATGTTCCTCGAC
DNA 2: GTCGAGGAACATTATGTTCCGTAC
B5: binds (GR DBD A477T [3]); binds (GR DBD WT [4]).

B6: Fkbp5 GBS (dsDNA)
DNA 1: GTACAGAACAGGGTGTTCTTCGAC
DNA 2: GTCGAAGAACACCCTGTTCTGTAC
B6: binds (GR DBD WT [1]); binds (GR DBD A477T [5]).

B7: Pal-ttg GBS (dsDNA)
DNA 1: GTACAGAACATTGTGTTCTTCGAC
DNA 2: GTCGAAGAACACAATGTTCTGTAC
B7: binds (GR DBD WT [2]).

B8: Pal-R GBS (dsDNA)
DNA 1: GTACAGAACATTTTGTTCTTCGAC
DNA 2: GTCGAAGAACAAAATGTTCTGTAC
B8: binds (GR DBD WT [6]).

B9: Sgk GBS (dsDNA)
DNA 1: GTACAGAACATTTTGTCCGTCGAC
DNA 2: GTCGACGGACAAAATGTTCTGTAC
B9: binds (GR DBD A477T [3]); binds (GR DBD WT [1]).
